Measured values as given in patent publication US20110280881A1 (RIKEN, published 2011).

Columns and labels:
mouse HSP90α (NP-034610) = molecular target: T1, mouse HSP90α (NP-034610) (mouse, UniProt P07901 2-733); experiment: antibody bound to living DC2.4 cells, lysis, Protein G-Sepharose, blot
T1 construct: whole, on cells; also called cell surface HSP90α
Procedure: (§1) Mammalian HSP90 occurs in two isoforms: HSP90α and β. The following experiment was performed to determine whether not only HSP90α but also HSP90β is recognized by the antibody of the present invention. […] After being thoroughly washed to remove the unreacted antibody, the cells were lysed; the lysate was centrifuged at 10,000×g, and the resulting supernatant was incubated along with Protein G-Sepharose. The bound material was subjected to SDS-PAGE, after which blotting was performed using an anti-HSP90α antibody (SPS-771, Assay designs), an anti-HSP90β antibody (PB-118-P1, Neomarkers), or an antibody that recognizes both HSP90α and β (6B1C4, another antibody obtained in Example 1).

mouse HSP90β (NP-032328) = molecular target: T2, mouse HSP90β (NP-032328) (mouse, UniProt P11499 2-724); experiment: as above
T2 construct: whole, on cells; also called cell surface HSP90β
T2 sequence (P11499 2-724): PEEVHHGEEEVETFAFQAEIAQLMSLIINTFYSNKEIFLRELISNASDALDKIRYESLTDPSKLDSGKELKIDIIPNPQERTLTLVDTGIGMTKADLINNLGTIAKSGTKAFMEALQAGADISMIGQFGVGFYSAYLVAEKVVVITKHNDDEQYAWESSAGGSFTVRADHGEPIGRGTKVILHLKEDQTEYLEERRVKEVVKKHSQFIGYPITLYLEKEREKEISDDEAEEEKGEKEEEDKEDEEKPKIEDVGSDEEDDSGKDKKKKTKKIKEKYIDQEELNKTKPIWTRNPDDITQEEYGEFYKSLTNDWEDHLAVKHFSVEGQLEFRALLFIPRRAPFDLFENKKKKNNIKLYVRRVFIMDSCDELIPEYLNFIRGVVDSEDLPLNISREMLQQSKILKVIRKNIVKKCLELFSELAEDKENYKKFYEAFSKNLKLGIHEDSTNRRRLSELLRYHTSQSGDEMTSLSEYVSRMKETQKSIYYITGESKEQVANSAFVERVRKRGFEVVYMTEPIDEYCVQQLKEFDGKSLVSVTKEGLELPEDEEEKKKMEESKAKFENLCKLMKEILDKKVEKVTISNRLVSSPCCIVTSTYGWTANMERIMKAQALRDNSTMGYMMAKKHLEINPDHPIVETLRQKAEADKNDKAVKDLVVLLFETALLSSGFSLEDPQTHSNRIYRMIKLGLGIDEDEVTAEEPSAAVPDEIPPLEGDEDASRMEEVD
Procedure: as §1

binding result (mouse HSP90α (NP-034610)): binds
binding result (mouse HSP90β (NP-032328)): binds
B1: 6H8D2 anti-HSP90 monoclonal antibody (hybridoma FERM BP-11222) (antibody, V domains shown)
VH: QVQLQQSGPELVKPGASVRISCKASGYTFTSYYIHWVKQRPGQGLEWIGWIYPGNVNTKYNEKFKGKATLTADKSSSTAYMQLSSLTSEDSAVYFCARYGNYPFAYWGQGTLVTVSA
VL: DVVMTQTPLSLPVSLGDQASISCRSSQSLVHSNGNTYLHWYLQKPGQSPKLLIYKVSNRFSGVPDRFSGSGSGTDFTLKISRVEAEDLGVYFCSQSTHVPPTFGGGTKLEIKR
notes: Mouse monoclonal IgG from a hybridoma; Normal mouse IgG2a served as its control; It was biotinylated for FACS; also called 6H8 antibody; 6H8 mAb
